# Assay results: article PMC12738837, “Structure of Trypanosoma peroxisomal import complex unveils conformational heterogeneity” (Nature Communications, 2025)
# Values joined by “and” are separate entries in the source; they are usually repeats but may differ in a detail not shown here. Equal entries are not always repeated. Where two headings read alike, the source gives them in different places.
# T1: glycosomal malate dehydrogenase (MDH, residues 1–323) (Trypanosoma cruzi), Q4DRD8
# T1 chain: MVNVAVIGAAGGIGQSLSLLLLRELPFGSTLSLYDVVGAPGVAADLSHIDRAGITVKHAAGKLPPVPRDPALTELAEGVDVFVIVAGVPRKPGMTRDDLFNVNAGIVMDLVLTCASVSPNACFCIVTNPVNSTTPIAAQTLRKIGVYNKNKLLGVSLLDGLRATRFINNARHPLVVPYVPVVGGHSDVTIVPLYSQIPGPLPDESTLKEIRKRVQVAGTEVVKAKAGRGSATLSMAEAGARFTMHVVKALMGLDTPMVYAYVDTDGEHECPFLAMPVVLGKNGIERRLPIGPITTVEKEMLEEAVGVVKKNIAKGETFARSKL
# T2: PTS1 peptide derived from MDH (NH2-ARSKL-COOH) (Trypanosoma cruzi)
# T2 chain: ARSKL
# T3: glycosomal malate dehydrogenase (MDH, residues 1–323) (Trypanosoma cruzi, UniProt Q4DRD8 1-323)
# T3 construct: glycosomal malate dehydrogenase (MDH), Trypanosoma cruzi, residues 1-323, UniProt Q4DRD8; Tetramer (two dimers related by D2 symmetry) by cryo-EM; also called cargo; MDH tetramer; source: E. coli BL21 (DE3), purified (Ni-NTA, SEC)
# T3 sequence (looked up): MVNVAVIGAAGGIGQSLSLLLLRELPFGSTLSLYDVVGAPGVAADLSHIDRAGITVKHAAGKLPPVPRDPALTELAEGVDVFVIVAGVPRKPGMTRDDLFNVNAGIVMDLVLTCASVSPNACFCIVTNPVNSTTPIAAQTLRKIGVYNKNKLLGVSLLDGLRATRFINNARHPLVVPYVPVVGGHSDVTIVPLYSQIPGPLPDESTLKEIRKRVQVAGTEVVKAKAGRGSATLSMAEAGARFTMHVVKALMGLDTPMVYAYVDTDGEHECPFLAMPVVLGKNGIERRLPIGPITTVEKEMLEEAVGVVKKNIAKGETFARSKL
# Key:
# [1] = target: Pex5eTPR(N353E) mixed beforehand with the PTS1 peptide of MDH (Trypanosoma cruzi) (UniProt Q4DPQ9); test: ITC; Pex14NTD in the syringe injected into Pex5eTPR + PTS1 peptide in the cell; 20 mM sodium phosphate, 100 mM NaCl, pH 6.5, 25 °C; independent model
# [2] = target: Pex5eTPR (wild type) mixed beforehand with the PTS1 peptide of MDH (Trypanosoma cruzi) (UniProt Q4DPQ9); test: as above
# [3] = target: Pex5eTPR(Y358A) mixed beforehand with the PTS1 peptide of MDH (Trypanosoma cruzi) (UniProt Q4DPQ9); test: as above
# [4] = target: Pex5eTPR(GSGS) (Trypanosoma cruzi) (UniProt Q4DPQ9); test: ITC; Pex14NTD (175 uM, syringe) injected into Pex5eTPR in the cell, in the absence of PTS1 peptide; 20 mM sodium phosphate, 100 mM NaCl, pH 6.5, 25 °C
# [5] = target: Pex5eTPR(N353E) (Trypanosoma cruzi) (UniProt Q4DPQ9); test: as above
# [6] = target: Pex5eTPR(Y358A) (Trypanosoma cruzi) (UniProt Q4DPQ9); test: as above
# [7] = target: Pex5eTPR (truncated Pex5, extended TPR domain with one Wxxx(F/Y) motif; residues 314-666), Trypanosoma cruzi (Trypanosoma cruzi) (UniProt Q4DPQ9); test: as above
# [8] = target: Pex5_(eTPR)(Y358A) + PTS1 peptide (Trypanosoma cruzi) (UniProt Q4DPQ9); test: ITC; Pex14NTD (175 μM) injected into Pex5_(eTPR) + PTS1 (20 μM + 50 μM peptide) in the cell; 20 mM sodium phosphate, 100 mM NaCl, pH 6.5; 25 °C
# [9] = target: Pex5_(eTPR)(N353E) + PTS1 peptide (Trypanosoma cruzi) (UniProt Q4DPQ9); test: as above
# [10] = target: Pex5_(eTPR) with a GSGS-spacer between the Pex5 TPR domain and Wxxx(F/Y) motif + PTS1 peptide (Trypanosoma cruzi) (UniProt Q4DPQ9); test: as above
# [11] = target: Pex5_(eTPR) + PTS1 (complex of Pex5_(eTPR) with the PTS1 peptide, prepared before ITC) (Trypanosoma cruzi) (UniProt Q4DPQ9); test: as above
# [12] = target: MDH(GSGS) linker variant (Trypanosoma cruzi); test: ITC; Pex5_(eTPR) (250 μM) injected into MDH (25 μM) in the cell; 100 mM Hepes, 150 mM NaCl, 2 mM β-mercaptoethanol, pH 7.5; 25 °C
# [13] = target: MDH(Δ62–70) (Trypanosoma cruzi); test: as above
# [14] = target: 6-FAM labeled PTS1 peptide; test: fluorescence polarisation
# [15] = target: glycosomal malate dehydrogenase (MDH, residues 1–323) (Trypanosoma cruzi) (UniProt Q4DRD8); test: ITC; Pex5_(eTPR) (250 μM) injected into MDH (25 μM) in the cell; 100 mM Hepes, 150 mM NaCl, 2 mM β-mercaptoethanol, pH 7.5; 25 °C
# [16] = target: PTS1 peptide derived from MDH (NH2-ARSKL-COOH) (Trypanosoma cruzi); test: ITC; Pex5_(eTPR) with the PTS1 peptide (NH2-ARSKL-COOH); who was in the cell is not stated for the peptide; 25 °C
# [17] = target: glycosomal malate dehydrogenase (MDH), wild type (Trypanosoma cruzi); test: ITC; Pex5eTPR in the syringe injected into MDH in the cell; 100 mM Hepes, 150 mM NaCl, 2 mM beta-mercaptoethanol, pH 7.5, 25 °C; independent model; single titrations (replicates), each fitted by itself
# [18] = target: MDH(GSGS), glycosomal malate dehydrogenase with a GSGS linker between MDH and its PTS1 (Trypanosoma cruzi); test: as above
# [19] = target: 6-FAM labeled PTS1 peptide; test: fluorescence polarisation; remark: listed apart in the source
# [20] = target: T1, glycosomal malate dehydrogenase (MDH, …); test: ITC; Pex5_(eTPR) (250 μM) injected into MDH (25 μM) in the cell; 100 mM Hepes, 150 mM NaCl, 2 mM β-mercaptoethanol, pH 7.5; 25 °C
# [21] = target: T2, PTS1 peptide derived from MDH …; test: ITC; Pex5_(eTPR) with the PTS1 peptide (NH2-ARSKL-COOH); who was in the cell is not stated for the peptide; 25 °C
# [22] = target: T3, glycosomal malate dehydrogenase (MDH, …); test: ITC; Pex5_(eTPR) (250 μM) injected into MDH (25 μM) in the cell; 100 mM Hepes, 150 mM NaCl, 2 mM β-mercaptoethanol, pH 7.5; 25 °C; details: both partners purified
molecule,measurement,setting,value
"N-terminal domain of Pex14 (Pex14NTD), wild type (domain or fragment)",Ka,[1],2.24e+07 M⁻¹
same,Ka,[2],1.9e+07 M⁻¹
same,Ka,[3],1.24e+07 M⁻¹
"N-terminal domain of Pex14 (Pex14NTD; residues 21-85), Trypanosoma cruzi (domain or fragment)",Kd,[4],122 nM
same,stoichiometry N,[4],0.568
same,Kd,[5],48 nM
same,stoichiometry N,[5],0.738
same,Kd,[6],119 nM
same,stoichiometry N,[6],0.762
same,stoichiometry N,[7],0.657
N-terminal domain of Pex14 (Pex14NTD; residues 21–85) (domain or fragment),Kd,[8],81 nM
same,dH,[8],-57.4 kJ/mol
same,stoichiometry N,[8],0.88
same,Kd,[9],45 nM
same,dH,[9],-57.8 kJ/mol
same,stoichiometry N,[9],0.659
same,Kd,[10],178 nM
same,dH,[10],-52.6 kJ/mol
same,stoichiometry N,[10],0.7
same,Kd,[11],53 nM
same,dH,[11],-64.5 kJ/mol
same,stoichiometry N,[11],0.671
"Pex5_(eTPR) (residues 314–666), truncated Pex5 containing an extended TPR domain with a single Wxxx(F/Y) motif (from UniProt Q4DPQ9 316-668) (domain or fragment)",Kd,[12],148 nM
same,dH,[12],-24 kJ/mol
same,stoichiometry N,[12],0.543
same,Kd,[13],1000 nM
same,dH,[13],-25.4 kJ/mol
same,stoichiometry N,[13],0.5
Pex5_(eTPR) in presence of excess Pex14NTD (from UniProt Q4DPQ9 316-668) (complex),Kd,[14],80 nM
Pex5_(eTPR)(Δ470–480) (from UniProt Q4DPQ9 316-668) (domain or fragment),Kd,[15],102 nM
same,dH,[15],-28.8 kJ/mol
same,stoichiometry N,[15],0.452
same,Kd,[16],420 nM
same,dH,[16],-26.4 kJ/mol
same,stoichiometry N,[16],1.04
"Pex5eTPR, truncated Pex5 with the extended TPR domain and a single Wxxx(F/Y) motif, wild type (from UniProt Q4DPQ9 314-666) (domain or fragment)",Ka,[17],2.03e+06 M⁻¹ and 2.77e+06 M⁻¹ and 2.21e+06 M⁻¹
same,Kd,[17],492 nM and 361 nM and 453 nM
same,stoichiometry N,[17],0.309 and 0.622 and 0.265
same,Ka,[18],5.79e+06 M⁻¹ and 8.29e+06 M⁻¹
same,Kd,[18],173 nM and 121 nM
same,stoichiometry N,[18],0.722 and 0.503
Pex14NTD(A48F) (domain or fragment),Kd,[7],59 nM
same,stoichiometry N,[7],0.68
same,Ka,[2],8.24e+06 M⁻¹
same,Kd,[11],121 nM
same,dH,[11],-76.5 kJ/mol
same,stoichiometry N,[11],0.608
Pex14NTD(Q52A) (domain or fragment),Kd,[7],17 nM
same,stoichiometry N,[7],0.647
same,Ka,[2],1.86e+07 M⁻¹
same,Kd,[11],54 nM
same,dH,[11],-65.7 kJ/mol
same,stoichiometry N,[11],0.664
"Pex5_(eTPR) (residues 314–666), truncated Pex5 containing an extended TPR domain with a single Wxxx(F/Y) motif, Q4DPQ9 316-668 (domain or fragment, modifications not checked) MDDGALDNAADVEEWVREYAEAQEQLQRVQNETNYPFEPNNPYMYHDKPMEEGIAMLQLANMAEAALAFEAVCQKEPENVEAWRRLGTTQAENEKDCLAIIALNHARMLDPKDIAVHAALAVSHTNEHNVGAALQSLRSWLLSQPQYEHLGLVDLREVAADEGLDEVPEENYFFAAPSEYRDCCTLLYAAVEMNPNDPQLHASLGVLHNLSHRFDEAAKNFRRAVELRPDDAHMWNKLGATLANGNRPQEALEAYNRALDINPGYVRVMYNMAVSYSNMAQYPLAAKHITRAIALQAGGTNPQGEGSRIATRGLWDLLRMTLNLMDRSDLVEASWQQDLTPFLREFGLEEMAV",Kd,[19],254 nM
same,dH,[20],-26.5 kJ/mol
same,stoichiometry N,[20],0.398
same,dH,[21],-21 kJ/mol
same,stoichiometry N,[21],0.933
"Pex5_(eTPR)(R625A, D629A) (domain or fragment, source: E. coli BL21 (DE3), purified as wild type (Ni-NTA, SEC)) MDDGALDNAADVEEWAREYAEAQEQLQRVQNETNYPFEPNNPYMYHDKPMEEGIAMLQLANMAEAALAFEAVCQKEPENVEAWRRLGTTQAENEKDCLAIIALNHARMLDPKDIAVHAALAVSHTNEHNVGAALQSLRSWLLSQPQYEHLGLVDLQEVAADEGLDEVPEENYFFAAPSEYRDCCTLLYAAVEMNPNDPQLHASLGVLHNLSHRFDEAAKNFRRAVELRPDDAHTWNKLGATLANGNRPQEALEAYNRALDINPGYVRVMYNMAVSYSNMAQYPLAAKHITRAIALQAGGTNPQGEGSRIATAGLWALLRMTLNLMDRSDLVEASWQQDLTPFLKEFGLEDMAV",dH,[22],-22.5 ± 0.5 kJ/mol
same,stoichiometry N,[22],0.5 ± 0.006
"Pex5_(eTPR)(P490R) (domain or fragment, source: E. coli BL21 (DE3), purified as wild type (Ni-NTA, SEC)) MDDGALDNAADVEEWAREYAEAQEQLQRVQNETNYPFEPNNPYMYHDKPMEEGIAMLQLANMAEAALAFEAVCQKEPENVEAWRRLGTTQAENEKDCLAIIALNHARMLDPKDIAVHAALAVSHTNEHNVGAALQSLRSWLLSQPQYEHLGLVDLQEVAADEGLDEVPEENYFFAARSEYRDCCTLLYAAVEMNPNDPQLHASLGVLHNLSHRFDEAAKNFRRAVELRPDDAHTWNKLGATLANGNRPQEALEAYNRALDINPGYVRVMYNMAVSYSNMAQYPLAAKHITRAIALQAGGTNPQGEGSRIATRGLWDLLRMTLNLMDRSDLVEASWQQDLTPFLKEFGLEDMAV",dH,[22],-26.9 ± 0.9 kJ/mol
same,stoichiometry N,[22],0.292 ± 0.006
